Results from paper PMC2841545 (Protein Engineering, Design and Selection, 2010).
Positions count from the first letter of the chain named.

B1: scFv 43H02 (Group ai, selected on ABL1) (scFv, V domains shown)
VH: EVQLLESGGGLVKPGGSLRLSCAASGFTFDDYAMHWVRQAPGKGLEWVSGISWNSGSIGYADSVKGRFTISRDNAKNSLYLQMNSLRAEDTALYYCAKGGPGIRYPDAFDIWGQGTLVTVSS
VL: not shown
B2: scFv 43_E02 (Group aiii, selected on ABL1) (scFv, V domains shown)
VH: B1 VH with K13Q, G16R, L117M
VL: DIQMTQSPSSLSASVGDRVTITCRASQSIRNDLGWYQQKPGKAPKLLIYAASSLQSGVPSRFSGSGSGTDFTLTISSLQPEDFATYYCQQSSSTPITFGGGTKVEIK

Target: ABL1 SH2 domain (Homo sapiens (clone BC059260 maps to …, UniProt P00519))
Assay: ELISA

Chain of ABL1 SH2 domain (Homo sapiens (P00519 whole entry, looked up, the tested form may be a part): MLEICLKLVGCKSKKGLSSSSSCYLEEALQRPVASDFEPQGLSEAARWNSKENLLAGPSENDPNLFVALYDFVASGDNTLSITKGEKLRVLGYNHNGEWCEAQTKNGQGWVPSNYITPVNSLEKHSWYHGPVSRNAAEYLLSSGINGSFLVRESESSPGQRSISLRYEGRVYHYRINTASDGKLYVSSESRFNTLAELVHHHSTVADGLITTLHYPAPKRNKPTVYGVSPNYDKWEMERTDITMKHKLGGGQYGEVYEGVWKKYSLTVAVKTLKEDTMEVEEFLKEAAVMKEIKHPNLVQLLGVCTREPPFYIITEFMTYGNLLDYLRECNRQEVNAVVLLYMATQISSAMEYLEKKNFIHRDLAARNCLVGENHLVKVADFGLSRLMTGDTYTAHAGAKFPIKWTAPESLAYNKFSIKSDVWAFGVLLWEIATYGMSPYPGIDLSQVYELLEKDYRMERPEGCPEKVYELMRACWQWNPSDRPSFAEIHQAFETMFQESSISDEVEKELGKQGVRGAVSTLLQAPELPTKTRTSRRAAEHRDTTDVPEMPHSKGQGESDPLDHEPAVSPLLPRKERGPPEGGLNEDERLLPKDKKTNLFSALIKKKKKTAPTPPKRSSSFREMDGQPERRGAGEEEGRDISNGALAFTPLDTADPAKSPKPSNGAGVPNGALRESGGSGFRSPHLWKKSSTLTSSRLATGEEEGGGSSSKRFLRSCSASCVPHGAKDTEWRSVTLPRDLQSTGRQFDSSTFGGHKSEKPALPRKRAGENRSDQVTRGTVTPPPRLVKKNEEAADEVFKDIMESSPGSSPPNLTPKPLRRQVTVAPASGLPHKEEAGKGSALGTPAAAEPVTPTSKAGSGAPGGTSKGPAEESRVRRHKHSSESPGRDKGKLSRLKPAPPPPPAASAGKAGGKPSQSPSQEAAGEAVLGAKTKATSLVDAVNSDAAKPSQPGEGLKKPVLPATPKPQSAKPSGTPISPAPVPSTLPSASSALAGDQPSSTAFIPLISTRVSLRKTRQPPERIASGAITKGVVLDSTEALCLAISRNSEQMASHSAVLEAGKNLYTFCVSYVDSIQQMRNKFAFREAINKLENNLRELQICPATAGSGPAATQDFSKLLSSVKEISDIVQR

Row | Binder | binding result
1 | B1 | binds
2 | B2 | binds
